Data set [1] deals with plasminogen.
Data set [2] deals with plasminogen. Kind of data set: Determination of the specific activity of the SAK polypeptides (plasmin release from plasminogen, Chromozym-PL). The data set is classed as biochemical. The note with it: plasminogen in excess, activation 10 minutes at 25° C., 405 nm. The protocol: The specific activity of a SAK form is defined as that quantity of plasmin (μmol) which is released per minute by 1 μmol of this SAK polypeptide from plasminogen (used in excess).
The protein content of the pertinent SAK polypeptide-containing parent solutions is established by means of the Bio-Rad Protein Assay (Bio-Rad, Munich) using bovine serum albumin as standard protein.
The determination of the plasmin release by the SAK polypeptides is carried out in two steps:
Firstly, dilution series (1 ng to 500 ng) of the SAK polypeptides are produced in 100 mM tris (pH 8.0). A reaction mixture, consisting of 30 μl plasminogen solution 20 mg plasminogen (Fluka), dissolved in 1 ml H2 O, 150 μl 100 mM tris buffer (pH 5.0) and 10 μl activator solution (dilution series SAK polypeptides) is then prepared. This mixture is incubated for 10 minutes at 25° C. […]
Reference samples, calibration samples and the actual measurement samples (each 250 μl) are pipetted into a microtitre plate with 96 cavities (flat bottom) and the adsorption at 405 nm is measured in a multi-channel photometer.
The quantity of plasmin which is released per minute by the SAK polypeptides contained in the starting solutions (dilution samples) can be calculated from the absorption values of the measured samples, taking into account the absorption values of the plasmin calibration series and of the reference samples. […]

In data set [3] the target is human plasminogen isolated from human plasma (human, UniProt P00747). Kind of data set: analytical affinity chromatography on immobilized human plasminogen, 16° C., 0.1M tris-HCl pH 7.3.

These results are taken from patent publication US5801037A, “Expression of signal-peptide-free staphylokinases” (medac Gesellschaft fur klinische spezialpraparate mbH, priority 1991, dated 1998).

Molecule mature native staphylokinase SAK42D had a specific activity in µmol plasmin/(µmol SAK × min) (µmol plasmin/(µmol SAK × min)) with plasminogen [1] of 16.2.

For SAK fragment form N10ΔSAK42D, in the data set with plasminogen [1], the specific activity in µmol plasmin/(µmol SAK × min) (µmol plasmin/(µmol SAK × min)) was found to be 22.7.

artificial allelic SAK form SAKM26C came in with a specific activity in µmol plasmin/(µmol SAK × min) (µmol plasmin/(µmol SAK × min)) with plasminogen [1] of 21.1.

Molecule artificial allelic SAK form SAKM26L registered a specific activity in µmol plasmin/(µmol SAK × min) (µmol plasmin/(µmol SAK × min)) with plasminogen [1] of 36.6.

In the data set with plasminogen [1], SAK fragment form N14ΔSAK42D had a specific activity in µmol plasmin/(µmol SAK × min) (µmol plasmin/(µmol SAK × min)) of 8.1.

B1: SAK42D: signal-peptide-free mature native staphylokinase from S. aureus phage 42D, 136 amino acids, Seq. Id. No. 1 (protein)
chain: MSSSFDKGKYKKGDDASYFEPTGPYLMVNVTGVDGKRNELLSPRYVEFPIKPGTTLTKEKIEYYVEWALDATAYKEFRVVELDPSAKIEVTYYDKNKKKEETKSFPITEKGFVVPDLSEHIKNPGFNLITKVVIEKK
With B1, in the data set on plasminogen [2], the specific activity was 16.2 μmol plasmin/(μmol SAK × min).

B2: SAK fragment form N10ΔSAK42D (other)
chain: MKGDDASYFEPTGPYLMVNVTGVDGKRNELLSPRYVEFPIKPGTTLTKEKIEYYVEWALDATAYKEFRVVELDPSAKIEVTYYDKNKKKEETKSFPITEKGFVVPDLSEHIKNPGFNLITKVVIEKK
For the molecule B2, the Kd (usually a measure of binding affinity in units of concentration) in data set [3] turned out to be 2.21 µM. In other words, the single-digit micromolar range.

B3: SAK fragment form N14ΔSAK42D (other)
chain: MASYFEPTGPYLMVNVTGVDGKRNELLSPRYVEFPIKPGTTLTKEKIEYYVEWALDATAYKEFRVVELDPSAKIEVTYYDKNKKKEETKSFPITEKGFVVPDLSEHIKNPGFNLITKVVIEKK
The molecule B3 had a Kd in data set [3] of 4.4 µM.
